As a reminder, the stoichiometry N is a count of units in the complex or per binding partner.

The values that follow come from article PMC7142231, “α1-Microglobulin Binds Illuminated Flavins and Has a Protective Effect Against Sublethal Riboflavin-Induced Damage in Retinal Epithelial Cells” (Frontiers in Physiology, 2020).

The target in data set [1] is Cleaved A1M (~22 kDa band formed with illuminated riboflavin or FAD) (human). The experiment in a line: SDS-PAGE; 12% SDS-PAGE, samples reduced with 5% β-mercaptoethanol and boiled 1 min (similar results non-reducing); A1M with buffer or 40, 200, 1000 μM riboflavin or FAD, illuminated or in darkness 1 h at RT; Coomassie stain and Western blot. For orientation: In western blotting, separated proteins are transferred to a membrane and probed.

Data set [2] concerns the molecule itself. The data set is described as above.

The molecule “Cleaved A1M (~22 kDa band formed with illuminated riboflavin or FAD) (domain or fragment)” gave a stoichiometry N in data set [1] of 2.

B1: Recombinant human α1-microglobulin (A1M) with an N-terminal His-tag (natural protein, UniProt P02760 20-203, looked up)
chain: GPVPTPPDNIQVQENFNISRIYGKWYNLAIGSTCPWLKKIMDRMTVSTLVLGEGATEAEISMTSTRWRKGVCEETSGAYEKTDTDGKFLYHKSKWNITMESYVVHTNYDEYAIFLTKKFSRHHGPTITAKLYGRAPQLRETLLQDFRVVAQGVGIPEDSIFTMADRGECVPGEQEPEPILIPRV
notes: human α1-microglobulin (A1M), the lipocalin cut from the AMBP precursor; construct as in Kwasek et al., 2007; also called recombinant A1M; not shown: His-tag, N-terminal, kept
As for B1, the “stoichiometry N” value in data set [2] worked out at 2.
